B1: feruloyl esterase (LbFAE) from Lentilactobacillus buchneri LN 4017, wild type (enzyme, UniProt D7RU28 1-260, looked up)
chain: MIKFVTTEINGLTLRGTAHVPDGEPGQQFPTVLMFHGFGAVRDEGFRLFIQMSNRLMENGIAAVRFDFGCHGESDGEFEDFTFSQELNEGSALIDAVKSMSFVDSTKFSLLGESLGSVAASIVAGKRSTELTSLCMWSPAASFLDEILNDHTLQGKTVDNVEKDGYFDFYGLKLGKAFFDDLKNINIFDNAKKYQGPVKIVYGTNDFIPEKYSHKYMDGYENGELVIVQDGDHGWQSVPSRKRILDETMKFFRKTLLEAK
notes: Feruloyl esterase annotated as type-A FAE (faeA) from L. buchneri silage additive strain LN4017 (ATCC PTA-6138); synthetic gene amplified with primers from the ATG start to the stop codon; the monomer structure includes 260 amino acids; Cloned into pNIC28-Bsa4 by LIC; Theoretical mass with His6 tag and TEV site 31.6 kDa; also called faeA; source: E. coli BL21(DE3)-T1, purified (Ni-NTA, SEC)

Columns and labels:
LbFAE = target: T1, LbFAE (Lentilactobacillus buchneri, UniProt D7RU28); test: X-ray crystal structure, […] Å, wild-type crystal soaked with FA; format: binding; details: active site; crystal grown with 0.1 M sodium cacodylate pH 6.5, 0.2 M calcium acetate, PEG 8000
T1 construct: gene faeA; synthetic gene in pNIC28-Bsa4, E. coli BL21(DE3)-T1; Ni-NTA and SEC; homodimer about 60 kDa; monomer model 260 residues; catalytic triad Ser114, Asp206, His233

[1] = substrate: COC(=O)/C=C/c1ccc(O)c(OC)c1; test: HPLC of released ferulic acid, Michaelis-Menten fit; format: biochemical, Lentilactobacillus buchneri; details: pH 6.5, 40 °C, free enzyme
Description: HPLC of released ferulic acid, Michaelis-Menten fit on LbFAE

[2] = target: the molecule itself; test: SEC; HiLoad 16/60 Superdex 200 prep grade, 20 mM Hepes pH 7.5, 150 mM NaCl, 1 ml/min, 4°C; calibrated with ferritin, aldolase, conalbumin, ribonuclease A
[3] = substrate: COc1cc(/C=C/C(=O)Oc2ccc([N+](=O)[O-])cc2)ccc1O; test: spectrophotometric assay, Michaelis-Menten fit; format: biochemical, Lentilactobacillus buchneri; details: pH 6.5, 40 °C, free enzyme
Description: spectrophotometric assay, Michaelis-Menten fit on LbFAE

Row | Molecule | X-ray crystal structure, 1.90 Å, wild-type crystal soaked with FA (LbFAE) | Km [1] [µM] | Vmax [1] [µmol/min/mg] | kcat [1] [s⁻¹] | kcat/Km [1] [M⁻¹ s⁻¹] | stoichiometry N [2] | Km [3] [µM] | Vmax [3] [µmol/min/mg] | kcat [3] [s⁻¹] | kcat/Km [3] [M⁻¹ s⁻¹]
1 | COc1cc(/C=C/C(=O)O)ccc1O [FA, 4-hydroxy-3-methoxy-cinnamic acid] | only FA (i.e., the product) resulted in a complex with LbFAE |  |  |  |  |  |  |  |  | 
2 | B1 |  | 65 | 6.57 | 16.3 | 252000 | 2 | 900 | 6.9 | 6.7 | 7540

— article PMC9776664, “Crystal structure of the feruloyl esterase from Lentilactobacillus buchneri reveals a novel homodimeric state” (Frontiers in Microbiology, 2022)
